{"source": "paper PMC11461925", "about": "(2024)", "binders": {"B1": {"name": "LY-CoV555 Fab (Fab, V domains shown)", "VH": "QVQLVQSGAEVKKPGSSVKVSCKASGGTFSNYAISWVRQAPGQGLEWMGRIIPILGIANYAQKFQGRVTITADKSTSTAYMELSSLRSEDTAVYYCARGYYEARHYYYYYAMDVWGQGTAVTVSS", "VL": "not shown"}}, "biological_target": "Wu-1-RBD-I53-50A (SARS-CoV-2, UniProt P0DTC2 328-531)", "assay": "BLI"}
{"binder": "B1", "values": [{"measurement": "Kd", "result": 26.9, "unit": "nM"}]}
